Drawing on US20240279278A1, “NMU RECEPTOR 2 AGONISTS” (Boehringer Ingelheim International GmbH, priority 2023, published 2024), this text covers EC50 (hNMUR1) buffer for eight molecules.

The target in this assay is T1, human neuromedin U receptor 1 (human, UniProt Q9HB89 24-426).
T1 sequence (looked up): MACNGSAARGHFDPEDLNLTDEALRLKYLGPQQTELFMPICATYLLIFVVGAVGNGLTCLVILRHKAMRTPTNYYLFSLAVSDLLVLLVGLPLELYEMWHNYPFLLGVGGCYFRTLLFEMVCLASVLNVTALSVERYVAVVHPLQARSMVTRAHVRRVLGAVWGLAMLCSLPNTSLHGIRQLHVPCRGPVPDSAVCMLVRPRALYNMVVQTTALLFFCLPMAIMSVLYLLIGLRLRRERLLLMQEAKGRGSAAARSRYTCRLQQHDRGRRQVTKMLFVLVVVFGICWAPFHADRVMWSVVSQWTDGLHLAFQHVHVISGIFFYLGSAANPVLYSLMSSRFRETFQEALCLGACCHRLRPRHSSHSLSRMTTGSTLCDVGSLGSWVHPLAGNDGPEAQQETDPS
Description: cell-based or functional assay.

B1: C18DA-gGlu3-Sar15-AEPipAc-Tyr-Phe-NMeLeu-Nle-Arg-NMeAla-Arg-Gly-NH2 (peptide)
peptide: EEEXXXXXXXXXXXXXXXXYFLXRARG
HELM: PEPTIDE1{[O=C(O)CCCCCCCCCCCCCCCCC(=O)[*:2]].[gGlu].[gGlu].[gGlu].[Sar].[Sar].[Sar].[Sar].[Sar].[Sar].[Sar].[Sar].[Sar].[Sar].[Sar].[Sar].[Sar].[Sar].[Sar].[O=C(CN1CCN(CCN[*:1])CC1)[*:2]].Y.F.[meL].[Nle].R.[meA].R.G.[am]}$$$$V2.0
SMILES: CCCC[C@H](NC(=O)[C@H](CC(C)C)N(C)C(=O)[C@H](Cc1ccccc1)NC(=O)[C@H](Cc1ccc(O)cc1)NC(=O)CN1CCN(CCNC(=O)CN(C)C(=O)CN(C)C(=O)CN(C)C(=O)CN(C)C(=O)CN(C)C(=O)CN(C)C(=O)CN(C)C(=O)CN(C)C(=O)CN(C)C(=O)CN(C)C(=O)CN(C)C(=O)CN(C)C(=O)CN(C)C(=O)CN(C)C(=O)CN(C)C(=O)CC[C@H](NC(=O)CC[C@H](NC(=O)CC[C@H](NC(=O)CCCCCCCCCCCCCCCCC(=O)O)C(=O)O)C(=O)O)C(=O)O)CC1)C(=O)N[C@@H](CCCNC(=N)N)C(=O)N(C)[C@@H](C)C(=O)N[C@@H](CCCNC(=N)N)C(=O)NCC(N)=O
The molecule B1 came in with an EC50 (hNMUR1) buffer of 1100 nM.

B2: C18DA-gGlu3-Sar9-AEPipAc-Tyr-Phe-NMeLeu-Nle-Dbu-Pro-Arg-Gly-NH2 (peptide)
peptide: EEEXXXXXXXXXXYFLXXPRG
HELM: PEPTIDE1{[O=C(O)CCCCCCCCCCCCCCCCC(=O)[*:2]].[gGlu].[gGlu].[gGlu].[Sar].[Sar].[Sar].[Sar].[Sar].[Sar].[Sar].[Sar].[Sar].[O=C(CN1CCN(CCN[*:1])CC1)[*:2]].Y.F.[meL].[Nle].[Dab].P.R.G.[am]}$$$$V2.0
SMILES: CCCC[C@H](NC(=O)[C@H](CC(C)C)N(C)C(=O)[C@H](Cc1ccccc1)NC(=O)[C@H](Cc1ccc(O)cc1)NC(=O)CN1CCN(CCNC(=O)CN(C)C(=O)CN(C)C(=O)CN(C)C(=O)CN(C)C(=O)CN(C)C(=O)CN(C)C(=O)CN(C)C(=O)CN(C)C(=O)CN(C)C(=O)CC[C@H](NC(=O)CC[C@H](NC(=O)CC[C@H](NC(=O)CCCCCCCCCCCCCCCCC(=O)O)C(=O)O)C(=O)O)C(=O)O)CC1)C(=O)N[C@@H](CCN)C(=O)N1CCC[C@H]1C(=O)N[C@@H](CCCNC(=N)N)C(=O)NCC(N)=O
In the case of B2, the EC50 (hNMUR1) buffer stood at 1000 nM.

B3: C18DA-gGlu3-Sar12-AEPipAc-Tyr-Phe-NMeLeu-Nle-Arg-Pro-Arg-Gly-NH2 (peptide)
peptide: EEEXXXXXXXXXXXXXYFLXRPRG
HELM: PEPTIDE1{[O=C(O)CCCCCCCCCCCCCCCCC(=O)[*:2]].[gGlu].[gGlu].[gGlu].[Sar].[Sar].[Sar].[Sar].[Sar].[Sar].[Sar].[Sar].[Sar].[Sar].[Sar].[Sar].[O=C(CN1CCN(CCN[*:1])CC1)[*:2]].Y.F.[meL].[Nle].R.P.R.G.[am]}$$$$V2.0
SMILES: CCCC[C@H](NC(=O)[C@H](CC(C)C)N(C)C(=O)[C@H](Cc1ccccc1)NC(=O)[C@H](Cc1ccc(O)cc1)NC(=O)CN1CCN(CCNC(=O)CN(C)C(=O)CN(C)C(=O)CN(C)C(=O)CN(C)C(=O)CN(C)C(=O)CN(C)C(=O)CN(C)C(=O)CN(C)C(=O)CN(C)C(=O)CN(C)C(=O)CN(C)C(=O)CN(C)C(=O)CC[C@H](NC(=O)CC[C@H](NC(=O)CC[C@H](NC(=O)CCCCCCCCCCCCCCCCC(=O)O)C(=O)O)C(=O)O)C(=O)O)CC1)C(=O)N[C@@H](CCCNC(=N)N)C(=O)N1CCC[C@H]1C(=O)N[C@@H](CCCNC(=N)N)C(=O)NCC(N)=O
Molecule B3 showed an EC50 (hNMUR1) buffer of 200 nM.

B4: C18DA-gGlu3-Sar15-AEPipAc-Tyr-Phe-NMeLeu-Nle-Orn-Pro-Arg-Gly-NH2 (peptide)
peptide: EEEXXXXXXXXXXXXXXXXYFLXXPRG
HELM: PEPTIDE1{[O=C(O)CCCCCCCCCCCCCCCCC(=O)[*:2]].[gGlu].[gGlu].[gGlu].[Sar].[Sar].[Sar].[Sar].[Sar].[Sar].[Sar].[Sar].[Sar].[Sar].[Sar].[Sar].[Sar].[Sar].[Sar].[O=C(CN1CCN(CCN[*:1])CC1)[*:2]].Y.F.[meL].[Nle].[Orn].P.R.G.[am]}$$$$V2.0
SMILES: CCCC[C@H](NC(=O)[C@H](CC(C)C)N(C)C(=O)[C@H](Cc1ccccc1)NC(=O)[C@H](Cc1ccc(O)cc1)NC(=O)CN1CCN(CCNC(=O)CN(C)C(=O)CN(C)C(=O)CN(C)C(=O)CN(C)C(=O)CN(C)C(=O)CN(C)C(=O)CN(C)C(=O)CN(C)C(=O)CN(C)C(=O)CN(C)C(=O)CN(C)C(=O)CN(C)C(=O)CN(C)C(=O)CN(C)C(=O)CN(C)C(=O)CC[C@H](NC(=O)CC[C@H](NC(=O)CC[C@H](NC(=O)CCCCCCCCCCCCCCCCC(=O)O)C(=O)O)C(=O)O)C(=O)O)CC1)C(=O)N[C@@H](CCCN)C(=O)N1CCC[C@H]1C(=O)N[C@@H](CCCNC(=N)N)C(=O)NCC(N)=O
For B4, the EC50 (hNMUR1) buffer was > 1000 nM.

B5: C18DA-gGlu3-Sar15-AEPipAc-Tyr-Phe-NMeLeu-Nle-Dbu-NMeAla-Arg-Gly-NH2 (peptide)
peptide: EEEXXXXXXXXXXXXXXXXYFLXXARG
HELM: PEPTIDE1{[O=C(O)CCCCCCCCCCCCCCCCC(=O)[*:2]].[gGlu].[gGlu].[gGlu].[Sar].[Sar].[Sar].[Sar].[Sar].[Sar].[Sar].[Sar].[Sar].[Sar].[Sar].[Sar].[Sar].[Sar].[Sar].[O=C(CN1CCN(CCN[*:1])CC1)[*:2]].Y.F.[meL].[Nle].[Dab].[meA].R.G.[am]}$$$$V2.0
SMILES: CCCC[C@H](NC(=O)[C@H](CC(C)C)N(C)C(=O)[C@H](Cc1ccccc1)NC(=O)[C@H](Cc1ccc(O)cc1)NC(=O)CN1CCN(CCNC(=O)CN(C)C(=O)CN(C)C(=O)CN(C)C(=O)CN(C)C(=O)CN(C)C(=O)CN(C)C(=O)CN(C)C(=O)CN(C)C(=O)CN(C)C(=O)CN(C)C(=O)CN(C)C(=O)CN(C)C(=O)CN(C)C(=O)CN(C)C(=O)CN(C)C(=O)CC[C@H](NC(=O)CC[C@H](NC(=O)CC[C@H](NC(=O)CCCCCCCCCCCCCCCCC(=O)O)C(=O)O)C(=O)O)C(=O)O)CC1)C(=O)N[C@@H](CCN)C(=O)N(C)[C@@H](C)C(=O)N[C@@H](CCCNC(=N)N)C(=O)NCC(N)=O
Take B5: the EC50 (hNMUR1) buffer is > 1000 nM.

B6: C18DA-gGlu3-Sar12-AEPipAc-Tyr-Phe-NMeLeu-Nle-Arg-NMeAla-Arg-Gly-NH2 (peptide)
peptide: EEEXXXXXXXXXXXXXYFLXRARG
HELM: PEPTIDE1{[O=C(O)CCCCCCCCCCCCCCCCC(=O)[*:2]].[gGlu].[gGlu].[gGlu].[Sar].[Sar].[Sar].[Sar].[Sar].[Sar].[Sar].[Sar].[Sar].[Sar].[Sar].[Sar].[O=C(CN1CCN(CCN[*:1])CC1)[*:2]].Y.F.[meL].[Nle].R.[meA].R.G.[am]}$$$$V2.0
SMILES: CCCC[C@H](NC(=O)[C@H](CC(C)C)N(C)C(=O)[C@H](Cc1ccccc1)NC(=O)[C@H](Cc1ccc(O)cc1)NC(=O)CN1CCN(CCNC(=O)CN(C)C(=O)CN(C)C(=O)CN(C)C(=O)CN(C)C(=O)CN(C)C(=O)CN(C)C(=O)CN(C)C(=O)CN(C)C(=O)CN(C)C(=O)CN(C)C(=O)CN(C)C(=O)CN(C)C(=O)CC[C@H](NC(=O)CC[C@H](NC(=O)CC[C@H](NC(=O)CCCCCCCCCCCCCCCCC(=O)O)C(=O)O)C(=O)O)C(=O)O)CC1)C(=O)N[C@@H](CCCNC(=N)N)C(=O)N(C)[C@@H](C)C(=O)N[C@@H](CCCNC(=N)N)C(=O)NCC(N)=O
Take B6: the EC50 (hNMUR1) buffer was 1000 nM.

B7: C18DA-gGlu3-Sar12-AEPipAc-Tyr-Phe-NMeLeu-Nle-Orn-NMeAla-Arg-Gly-NH2 (peptide)
peptide: EEEXXXXXXXXXXXXXYFLXXARG
HELM: PEPTIDE1{[O=C(O)CCCCCCCCCCCCCCCCC(=O)[*:2]].[gGlu].[gGlu].[gGlu].[Sar].[Sar].[Sar].[Sar].[Sar].[Sar].[Sar].[Sar].[Sar].[Sar].[Sar].[Sar].[O=C(CN1CCN(CCN[*:1])CC1)[*:2]].Y.F.[meL].[Nle].[Orn].[meA].R.G.[am]}$$$$V2.0
SMILES: CCCC[C@H](NC(=O)[C@H](CC(C)C)N(C)C(=O)[C@H](Cc1ccccc1)NC(=O)[C@H](Cc1ccc(O)cc1)NC(=O)CN1CCN(CCNC(=O)CN(C)C(=O)CN(C)C(=O)CN(C)C(=O)CN(C)C(=O)CN(C)C(=O)CN(C)C(=O)CN(C)C(=O)CN(C)C(=O)CN(C)C(=O)CN(C)C(=O)CN(C)C(=O)CN(C)C(=O)CC[C@H](NC(=O)CC[C@H](NC(=O)CC[C@H](NC(=O)CCCCCCCCCCCCCCCCC(=O)O)C(=O)O)C(=O)O)C(=O)O)CC1)C(=O)N[C@@H](CCCN)C(=O)N(C)[C@@H](C)C(=O)N[C@@H](CCCNC(=N)N)C(=O)NCC(N)=O
Turning to B7, the EC50 (hNMUR1) buffer was > 1000 nM.

B8: C18DA-gGlu3-Sar15-AEPipAc-Tyr-Phe-NMeLeu-Nle-Orn-NMeAla-Arg-Gly-NH2 (peptide)
peptide: EEEXXXXXXXXXXXXXXXXYFLXXARG
HELM: PEPTIDE1{[O=C(O)CCCCCCCCCCCCCCCCC(=O)[*:2]].[gGlu].[gGlu].[gGlu].[Sar].[Sar].[Sar].[Sar].[Sar].[Sar].[Sar].[Sar].[Sar].[Sar].[Sar].[Sar].[Sar].[Sar].[Sar].[O=C(CN1CCN(CCN[*:1])CC1)[*:2]].Y.F.[meL].[Nle].[Orn].[meA].R.G.[am]}$$$$V2.0
SMILES: CCCC[C@H](NC(=O)[C@H](CC(C)C)N(C)C(=O)[C@H](Cc1ccccc1)NC(=O)[C@H](Cc1ccc(O)cc1)NC(=O)CN1CCN(CCNC(=O)CN(C)C(=O)CN(C)C(=O)CN(C)C(=O)CN(C)C(=O)CN(C)C(=O)CN(C)C(=O)CN(C)C(=O)CN(C)C(=O)CN(C)C(=O)CN(C)C(=O)CN(C)C(=O)CN(C)C(=O)CN(C)C(=O)CN(C)C(=O)CN(C)C(=O)CC[C@H](NC(=O)CC[C@H](NC(=O)CC[C@H](NC(=O)CCCCCCCCCCCCCCCCC(=O)O)C(=O)O)C(=O)O)C(=O)O)CC1)C(=O)N[C@@H](CCCN)C(=O)N(C)[C@@H](C)C(=O)N[C@@H](CCCNC(=N)N)C(=O)NCC(N)=O
B8: the EC50 (hNMUR1) buffer was > 1000 nM.
